# From the Human Domainome abundance scans (Beltran et al. 2025)
# ± gives the uncertainty stated by the source.
# B1: Unconventional myosin-Ie, residues 1051 to 1108; numbered along this chain, Q12965 (parent)
# chain: PQVPQCKALYAYDAQDTDELSFNANDIIDIIKEDPSGWWTGRLRGKQGLFPNNYVTKI
# Variants of: B1
# Assay: abundance fitness (aPCA) (normalised: wild type 0, dead -1); higher = more abundant; growth selection in yeast, the domain comes from the species named
# Details: Homo sapiens
row,Variant,abundance fitness
1,PQVPQCKALYAYDAQDTDELEFNANDIIDIIKEDPSGWWTGRLRGKQGLFPNNYVTKI,-0.247 ± 0.039
2,PQVPQCKALYAYDAQDTDELGFNANDIIDIIKEDPSGWWTGRLRGKQGLFPNNYVTKI,-0.358 ± 0.059
3,PQVPQCKALYAYDAQDTDELYFNANDIIDIIKEDPSGWWTGRLRGKQGLFPNNYVTKI,-0.756 ± 0.28
4,PQVPQCKALYAYDAQDTDELMFNANDIIDIIKEDPSGWWTGRLRGKQGLFPNNYVTKI,-0.803 ± 0.15
5,PQVPQCKALYAYDAQDTDELFFNANDIIDIIKEDPSGWWTGRLRGKQGLFPNNYVTKI,-0.938 ± 0.27
6,PQVPQCKALYAYDAQDTDELKFNANDIIDIIKEDPSGWWTGRLRGKQGLFPNNYVTKI,-0.266 ± 0.079
7,PQVPQCKALYAYDAQDTDELQFNANDIIDIIKEDPSGWWTGRLRGKQGLFPNNYVTKI,-0.325 ± 0.087
8,PQVPQCKALYAYDAQDTDELLFNANDIIDIIKEDPSGWWTGRLRGKQGLFPNNYVTKI,-0.939 ± 0.11
9,PQVPQCKALYAYDAQDTDELHFNANDIIDIIKEDPSGWWTGRLRGKQGLFPNNYVTKI,-0.931 ± 0.45
10,PQVPQCKALYAYDAQDTDELWFNANDIIDIIKEDPSGWWTGRLRGKQGLFPNNYVTKI,-0.559 ± 0.13
11,PQVPQCKALYAYDAQDTDELCFNANDIIDIIKEDPSGWWTGRLRGKQGLFPNNYVTKI,-0.219 ± 0.032
12,PQVPQCKALYAYDAQDTDELAFNANDIIDIIKEDPSGWWTGRLRGKQGLFPNNYVTKI,-0.263 ± 0.057
13,PQVPQCKALYAYDAQDTDELNFNANDIIDIIKEDPSGWWTGRLRGKQGLFPNNYVTKI,-0.175 ± 0.093
14,PQVPQCKALYAYDAQDTDELDFNANDIIDIIKEDPSGWWTGRLRGKQGLFPNNYVTKI,-0.217 ± 0.036
15,PQVPQCKALYAYDAQDTDELVFNANDIIDIIKEDPSGWWTGRLRGKQGLFPNNYVTKI,-0.891 ± 0.1
16,PQVPQCKALYAYDAQDTDELTFNANDIIDIIKEDPSGWWTGRLRGKQGLFPNNYVTKI,-0.058 ± 0.042
17,PQVPQCKALYAYDAQDTDELSINANDIIDIIKEDPSGWWTGRLRGKQGLFPNNYVTKI,-0.409 ± 0.073
18,PQVPQCKALYAYDAQDTDELSVNANDIIDIIKEDPSGWWTGRLRGKQGLFPNNYVTKI,-0.472 ± 0.079
19,PQVPQCKALYAYDAQDTDELSENANDIIDIIKEDPSGWWTGRLRGKQGLFPNNYVTKI,-0.858 ± 0.21
20,PQVPQCKALYAYDAQDTDELSTNANDIIDIIKEDPSGWWTGRLRGKQGLFPNNYVTKI,-0.793 ± 0.21
21,PQVPQCKALYAYDAQDTDELSYNANDIIDIIKEDPSGWWTGRLRGKQGLFPNNYVTKI,-0.714 ± 0.41
22,PQVPQCKALYAYDAQDTDELSHNANDIIDIIKEDPSGWWTGRLRGKQGLFPNNYVTKI,-0.727 ± 0.27
23,PQVPQCKALYAYDAQDTDELSKNANDIIDIIKEDPSGWWTGRLRGKQGLFPNNYVTKI,-0.754 ± 0.18

row,Variant,abundance fitness
1,PQVPQCKALYAYDAQDTDELSRNANDIIDIIKEDPSGWWTGRLRGKQGLFPNNYVTKI,-0.953 ± 0.11
2,PQVPQCKALYAYDAQDTDELSPNANDIIDIIKEDPSGWWTGRLRGKQGLFPNNYVTKI,-0.834 ± 0.26
3,PQVPQCKALYAYDAQDTDELSGNANDIIDIIKEDPSGWWTGRLRGKQGLFPNNYVTKI,-0.954 ± 0.095
4,PQVPQCKALYAYDAQDTDELSDNANDIIDIIKEDPSGWWTGRLRGKQGLFPNNYVTKI,-0.748 ± 0.45
5,PQVPQCKALYAYDAQDTDELSMNANDIIDIIKEDPSGWWTGRLRGKQGLFPNNYVTKI,-0.441 ± 0.055
6,PQVPQCKALYAYDAQDTDELSWNANDIIDIIKEDPSGWWTGRLRGKQGLFPNNYVTKI,-0.996 ± 0.14
7,PQVPQCKALYAYDAQDTDELSCNANDIIDIIKEDPSGWWTGRLRGKQGLFPNNYVTKI,-0.895 ± 0.13
8,PQVPQCKALYAYDAQDTDELSNNANDIIDIIKEDPSGWWTGRLRGKQGLFPNNYVTKI,-0.816 ± 0.28
9,PQVPQCKALYAYDAQDTDELSSNANDIIDIIKEDPSGWWTGRLRGKQGLFPNNYVTKI,-0.766 ± 0.073
10,PQVPQCKALYAYDAQDTDEHSFNANDIIDIIKEDPSGWWTGRLRGKQGLFPNNYVTKI,-0.977 ± 0.49
11,PQVPQCKALYAYDAQDTDEMSFNANDIIDIIKEDPSGWWTGRLRGKQGLFPNNYVTKI,-0.214 ± 0.046
12,PQVPQCKALYAYDAQDTDECSFNANDIIDIIKEDPSGWWTGRLRGKQGLFPNNYVTKI,-0.708 ± 0.19
13,PQVPQCKALYAYDAQDTDEISFNANDIIDIIKEDPSGWWTGRLRGKQGLFPNNYVTKI,-0.05 ± 0.087
14,PQVPQCKALYAYDAQDTDEKSFNANDIIDIIKEDPSGWWTGRLRGKQGLFPNNYVTKI,-0.836 ± 0.13
15,PQVPQCKALYAYDAQDTDEDSFNANDIIDIIKEDPSGWWTGRLRGKQGLFPNNYVTKI,-0.893 ± 0.17
16,PQVPQCKALYAYDAQDTDETSFNANDIIDIIKEDPSGWWTGRLRGKQGLFPNNYVTKI,-1.04 ± 0.22
17,PQVPQCKALYAYDAQDTDEESFNANDIIDIIKEDPSGWWTGRLRGKQGLFPNNYVTKI,-0.807 ± 0.13
18,PQVPQCKALYAYDAQDTDENSFNANDIIDIIKEDPSGWWTGRLRGKQGLFPNNYVTKI,-0.764 ± 0.35
19,PQVPQCKALYAYDAQDTDESSFNANDIIDIIKEDPSGWWTGRLRGKQGLFPNNYVTKI,-0.879 ± 0.14
20,PQVPQCKALYAYDAQDTDEGSFNANDIIDIIKEDPSGWWTGRLRGKQGLFPNNYVTKI,-1.03 ± 0.11
21,PQVPQCKALYAYDAQDTDEWSFNANDIIDIIKEDPSGWWTGRLRGKQGLFPNNYVTKI,-1.01 ± 0.066
22,PQVPQCKALYAYDAQDTDEPSFNANDIIDIIKEDPSGWWTGRLRGKQGLFPNNYVTKI,-1.11 ± 0.11
23,PQVPQCKALYAYDAQDTDEVSFNANDIIDIIKEDPSGWWTGRLRGKQGLFPNNYVTKI,-0.879 ± 0.11

row,Variant,abundance fitness
1,PQVPQCKALYAYDAQDTDEQSFNANDIIDIIKEDPSGWWTGRLRGKQGLFPNNYVTKI,-1.12 ± 0.15
2,PQVPQCKALYAYDAQDTNELSFNANDIIDIIKEDPSGWWTGRLRGKQGLFPNNYVTKI,-0.055 ± 0.077
3,PQVPQCKALYAYDAQDTLELSFNANDIIDIIKEDPSGWWTGRLRGKQGLFPNNYVTKI,-0.063 ± 0.049
4,PQVPQCKALYAYDAQDTSELSFNANDIIDIIKEDPSGWWTGRLRGKQGLFPNNYVTKI,0.009 ± 0.046
5,PQVPQCKALYAYDAQDTVELSFNANDIIDIIKEDPSGWWTGRLRGKQGLFPNNYVTKI,-0.257 ± 0.044
6,PQVPQCKALYAYDAQDTRELSFNANDIIDIIKEDPSGWWTGRLRGKQGLFPNNYVTKI,-0.065 ± 0.037
7,PQVPQCKALYAYDAQDTMELSFNANDIIDIIKEDPSGWWTGRLRGKQGLFPNNYVTKI,-0.091 ± 0.045
8,PQVPQCKALYAYDAQDTPELSFNANDIIDIIKEDPSGWWTGRLRGKQGLFPNNYVTKI,0.089 ± 0.085
9,PQVPQCKALYAYDAQDTYELSFNANDIIDIIKEDPSGWWTGRLRGKQGLFPNNYVTKI,-0.078 ± 0.076
10,PQVPQCKALYAYDAQDTQELSFNANDIIDIIKEDPSGWWTGRLRGKQGLFPNNYVTKI,-0.152 ± 0.044
11,PQVPQCKALYAYDAQDTTELSFNANDIIDIIKEDPSGWWTGRLRGKQGLFPNNYVTKI,-0.1 ± 0.074
12,PQVPQCKALYAYDAQDTWELSFNANDIIDIIKEDPSGWWTGRLRGKQGLFPNNYVTKI,-0.2 ± 0.042
13,PQVPQCKALYAYDAQDTIELSFNANDIIDIIKEDPSGWWTGRLRGKQGLFPNNYVTKI,-0.197 ± 0.14
14,PQVPQCKALYAYDAQDTDNLSFNANDIIDIIKEDPSGWWTGRLRGKQGLFPNNYVTKI,-0.277 ± 0.093
15,PQVPQCKALYAYDAQDTDDLSFNANDIIDIIKEDPSGWWTGRLRGKQGLFPNNYVTKI,-0.54 ± 0.09
16,PQVPQCKALYAYDAQDTDGLSFNANDIIDIIKEDPSGWWTGRLRGKQGLFPNNYVTKI,-0.018 ± 0.04
17,PQVPQCKALYAYDAQDTDTLSFNANDIIDIIKEDPSGWWTGRLRGKQGLFPNNYVTKI,-0.132 ± 0.066
18,PQVPQCKALYAYDAQDTDRLSFNANDIIDIIKEDPSGWWTGRLRGKQGLFPNNYVTKI,-0.189 ± 0.038
19,PQVPQCKALYAYDAQDTDMLSFNANDIIDIIKEDPSGWWTGRLRGKQGLFPNNYVTKI,-0.055 ± 0.076
20,PQVPQCKALYAYDAQDTDSLSFNANDIIDIIKEDPSGWWTGRLRGKQGLFPNNYVTKI,-0.159 ± 0.054
21,PQVPQCKALYAYDAQDTDFLSFNANDIIDIIKEDPSGWWTGRLRGKQGLFPNNYVTKI,-0.095 ± 0.078
22,PQVPQCKALYAYDAQDTDPLSFNANDIIDIIKEDPSGWWTGRLRGKQGLFPNNYVTKI,-0.925 ± 0.063
23,PQVPQCKALYAYDAQDTDCLSFNANDIIDIIKEDPSGWWTGRLRGKQGLFPNNYVTKI,-0.123 ± 0.074

row,Variant,abundance fitness
1,PQVPQCKALYAYDAQDTDILSFNANDIIDIIKEDPSGWWTGRLRGKQGLFPNNYVTKI,-0.548 ± 0.22
2,PQVPQCKALYAYDAQDTDQLSFNANDIIDIIKEDPSGWWTGRLRGKQGLFPNNYVTKI,-0.125 ± 0.079
3,PQVPQCKALYAYDAQDTDKLSFNANDIIDIIKEDPSGWWTGRLRGKQGLFPNNYVTKI,-0.136 ± 0.073
4,PQVPQCKALYAYDAQDTDYLSFNANDIIDIIKEDPSGWWTGRLRGKQGLFPNNYVTKI,0.191 ± 0.074
5,PQVPQCKALYAYDAQDTDLLSFNANDIIDIIKEDPSGWWTGRLRGKQGLFPNNYVTKI,-0.435 ± 0.081
6,PQVPQCKALYAYDAQDTDVLSFNANDIIDIIKEDPSGWWTGRLRGKQGLFPNNYVTKI,-0.382 ± 0.06
7,PQVPQCKALYAYDAQDTDALSFNANDIIDIIKEDPSGWWTGRLRGKQGLFPNNYVTKI,-0.288 ± 0.069
8,PQVPQCKALYAYDAQDTDWLSFNANDIIDIIKEDPSGWWTGRLRGKQGLFPNNYVTKI,-0.359 ± 0.039
9,PQVPQCKALYAYDAQDTDELSFMANDIIDIIKEDPSGWWTGRLRGKQGLFPNNYVTKI,-0.026 ± 0.047
10,PQVPQCKALYAYDAQDTDELSFIANDIIDIIKEDPSGWWTGRLRGKQGLFPNNYVTKI,-0.081 ± 0.03
11,PQVPQCKALYAYDAQDTDELSFPANDIIDIIKEDPSGWWTGRLRGKQGLFPNNYVTKI,-0.788 ± 0.041
12,PQVPQCKALYAYDAQDTDELSFKANDIIDIIKEDPSGWWTGRLRGKQGLFPNNYVTKI,-0.008 ± 0.045
13,PQVPQCKALYAYDAQDTDELSFEANDIIDIIKEDPSGWWTGRLRGKQGLFPNNYVTKI,0.005 ± 0.041
14,PQVPQCKALYAYDAQDTDELSFHANDIIDIIKEDPSGWWTGRLRGKQGLFPNNYVTKI,-0.048 ± 0.032
15,PQVPQCKALYAYDAQDTDELSFQANDIIDIIKEDPSGWWTGRLRGKQGLFPNNYVTKI,-0.002 ± 0.04
16,PQVPQCKALYAYDAQDTDELSFCANDIIDIIKEDPSGWWTGRLRGKQGLFPNNYVTKI,-0.062 ± 0.033
17,PQVPQCKALYAYDAQDTDELSFSANDIIDIIKEDPSGWWTGRLRGKQGLFPNNYVTKI,0.004 ± 0.027
18,PQVPQCKALYAYDAQDTDELSFDANDIIDIIKEDPSGWWTGRLRGKQGLFPNNYVTKI,-0.047 ± 0.036
19,PQVPQCKALYAYDAQDTDELSFLANDIIDIIKEDPSGWWTGRLRGKQGLFPNNYVTKI,-0.065 ± 0.028
20,PQVPQCKALYAYDAQDTDELSFFANDIIDIIKEDPSGWWTGRLRGKQGLFPNNYVTKI,-0.076 ± 0.03
21,PQVPQCKALYAYDAQDTDELSFGANDIIDIIKEDPSGWWTGRLRGKQGLFPNNYVTKI,-0.048 ± 0.027
22,PQVPQCKALYAYDAQDTDELSFAANDIIDIIKEDPSGWWTGRLRGKQGLFPNNYVTKI,-0.01 ± 0.031
